The values below come from article PMC4525180 (Nature communications, 2015).

B1: Rad51 (natural protein, S. cerevisiae, UniProt P25454 1-400, looked up)
chain: MSQVQEQHISESQLQYGNGSLMSTVPADLSQSVVDGNGNGSSEDIEATNGSGDGGGLQEQAEAQGEMEDEAYDEAALGSFVPIEKLQVNGITMADVKKLRESGLHTAEAVAYAPRKDLLEIKGISEAKADKLLNEAARLVPMGFVTAADFHMRRSELICLTTGSKNLDTLLGGGVETGSITELFGEFRTGKSQLCHTLAVTCQIPLDIGGGEGKCLYIDTEGTFRPVRLVSIAQRFGLDPDDALNNVAYARAYNADHQLRLLDAAAQMMSESRFSLIVVDSVMALYRTDFSGRGELSARQMHLAKFMRALQRLADQFGVAVVVTNQVVAQVDGGMAFNPDPKKPIGGNIMAHSSTTRLGFKKGKGCQRLCKVVDSPCLPEAECVFAIYEDGVGDPREEDE
B2: Rad55–Rad57 complex (complex, S. cerevisiae)
chain 1: MSLGIPLSQLIVESPKPLSSGITGLDEILNLGFQARSIYEIFGPPGIGKTNFGIQLVCNSLEGIQQSEINDDKILWIETFQEMPINILRERFQKFKIVEENVKRVRITKFGQLLYFFQNLFKLSQSVRYKLVIIDGFSQLVCDHLCTLSKRGGGMIDKTIHELKCRHLILIFTVMTKYTHSTGSTIIVLNDCMNTAFQSNEFESLEEYYEILDDGSNFFVNSNNERRKNNVHILKSALVANIAMGSKDSTWEVFLRDRIGLFRDWNEQVDETVFVKSKRVKASSSQSNEGCTTIKEMRINKRNFENLRIAIVFNLHGEDRKREGRNLKRSRSSDDRNYIVKFDFDKATGQLRDIIDLKPDTANIASFPTLSTSSSSCSQVFNNIDSNDNPLPNAEGKEEIIYDSEG
chain 2: MPRALSIKFDNTYMDLYDELPESKLLYDEEFSYLLDAVRQNGVCVVDFLTLTPKELARLIQRSINEVFRFQQLLVHEYNEKYLEICEKNSISPDNGPECFTTADVAMDELLGGGIFTHGITEIFGESSTGKSQLLMQLALSVQLSEPAGGLGGKCVYITTEGDLPTQRLESMLSSRPAYEKLGITQSNIFTVSCNDLINQEHIINVQLPILLERSKGSIKLVIIDSISHHLRVELQNKSFRESQENKNYLDRMAEKLQILAHDYSLSVVVANQVGDKPLANSPVAHRTYVTDYDYQLGWLVGWKNSTILYRQMNSLLGASSNNDEILSDDEDYMLIERVMSTVNDRNYDFFSKKKPPIIENKTVERNSSSPISRQSKKRKFDYRVPNLGLTWSNHVSTRILLQKSFKASTIIQRGEAHLYKGGDSASFWQVKRTMKVVYSTFAKPGQIAYQITKRGIETA
B3: Csm2–Psy3 heterodimer (complex, S. cerevisiae)
chain 1: MEYEDLELITIWPSPTKNKLCQFIKQNLSKEHVVTQLFFIDATSSFPLSQFQKLVPPTLPENVRIYENIRINTCLDLEELSAITVKLLQILSMNKINAQRGTEDAVTEPLKIILYINGLEVMFRNSQFKSSPQRSHELLRDTLLKLRVMGNDENENASIRTLLEFPKEQLLDYYLKKNNNTRTSSVRSKRRRIKNGDSLAEYIWKYYADSLFE
chain 2: MEVLKNIRIYPLSNFITSTKNYINLPNELRNLISEEQESKLGFLHIIESDFKPSVALQKLVNCTTGDEKILIIDIVSIWSQQKQRQHGAIYMNSLSCINITGLIVFLELLYDSPMDALRRCQVDNFNFQLRGIVIDNLSFLNFESDKNYDVINLSKFEKLFKILRKLREFLGCWIITKSFPTDFYNGIENTLVDKWSIKRKSGVTLYPTKLPDSYMKGMDLIIYREVVDGRPQYRRIAALEE
B4: Shu complex (Csm2–Psy3–Shu1–Shu2) (complex, S. cerevisiae)
chain 1: B3 chain 1
chain 2: B3 chain 2
chain 3: MQFEERLQQLVESDWSLDQSSPNVLVIVLGDTARKYVELGGLKEHVTTNTVAGHVASRERVSVVFLGRVKYLYMYLTRMQAQANGPQYSNVLVYGLWDLTATQDGPQQLRLLSLVLRQCLSLPSKVEFYPEPPSSSVPARLLRFWDHIIR
chain 4: MSKDVIEYSKLFAKLVNTNDDTKLDDTIASFLYYMFPRELFIRAISLLESSDMFIYILDRVHNKEGNEHTSLIDVLVDEFYKGSSNSLLEYRLIVKDTNDGAPPILVDIAHWFCSCEEFCKYFHEALEKTDEKEELHDVLINEVDDHLQFSDDRFAQLDPHSLSKQWYFKFDKVCCSHLLAFSILLRSSINVLKFFTVNSNKVFVIAIDNIDEWLNLHINIVE

Common to all, as to conditions: both partners purified
Experiment [1] has as its target B2. In words: pull-down; pull-down with Rad51; set-up only in Supplementary Fig. 2b; also with Csm2–Psy3 added to Rad55–Rad57 and Rad51.
Experiment [2] deals with GST-tagged Rad52 (S. cerevisiae, UniProt P06778 1-471). In words: pull-down; GST–Rad52 with one partner, captured on glutathione resin; buffer with 100 mM KCl, no imidazole, 4 °C; anti-FLAG immunoblot (FLAG on Rad57 and Psy3).
Sequence of GST-tagged Rad52 (P06778 whole entry): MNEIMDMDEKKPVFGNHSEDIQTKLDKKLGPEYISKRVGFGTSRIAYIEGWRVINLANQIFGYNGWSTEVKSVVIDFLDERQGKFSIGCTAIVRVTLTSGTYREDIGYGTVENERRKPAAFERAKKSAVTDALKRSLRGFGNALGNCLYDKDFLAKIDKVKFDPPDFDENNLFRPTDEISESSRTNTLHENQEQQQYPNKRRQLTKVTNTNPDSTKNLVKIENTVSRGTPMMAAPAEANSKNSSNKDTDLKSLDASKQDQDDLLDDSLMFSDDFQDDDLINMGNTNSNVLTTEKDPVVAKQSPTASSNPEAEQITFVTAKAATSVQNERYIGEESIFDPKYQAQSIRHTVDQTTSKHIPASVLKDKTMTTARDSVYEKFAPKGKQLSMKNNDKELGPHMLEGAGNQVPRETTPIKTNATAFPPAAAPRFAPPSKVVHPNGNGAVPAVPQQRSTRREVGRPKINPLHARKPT
For experiment [3], the target named is B2. In words: pull-down; His-tagged Rad55–Rad57 (0.5 μg) with Csm2–Psy3 (0.5 μg), captured on Ni-NTA resin through (His)6 on Rad55; buffer C (20 mM MOPS pH 7.2, 150 mM KCl, 1 mM ATP, 2 mM MgCl2, 15 mM imidazole), 4 °C, washes with 200 mM KCl; SDS-PAGE, Coomassie.
Experiment [4] addresses B2. Kind of experiment: pull-down; Shu complex with Rad55–Rad57; set-up only in Supplementary Fig. 2a.

As to B1, the binding result in experiment [1] is recorded as “binds”.

B2: the binding result in experiment [2] is recorded as “binds”.

For the molecule B3, the binding result in experiment [3] was “binds”. Consider B4, for which the binding result in experiment [4] is reported as “binds”.
